The record followed here is US20260022175A1 (Chugai, published 2026).

For assay [1], the target named is T1, human FcγRIIa R allotype extracellular domain with C-terminal His-tag (human, UniProt P12318 34-217).
T1 construct: extracellular domain; also called hFcγR IIa R
T1 sequence (looked up): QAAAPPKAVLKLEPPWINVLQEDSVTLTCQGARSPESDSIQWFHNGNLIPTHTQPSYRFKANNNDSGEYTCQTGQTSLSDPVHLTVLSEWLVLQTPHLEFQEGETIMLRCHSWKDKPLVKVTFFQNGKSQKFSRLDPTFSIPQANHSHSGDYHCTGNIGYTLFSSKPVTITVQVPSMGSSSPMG
Put plainly: SPR; KD of 04H1389-G1m/04L1615-k0MT divided by KD of variant. On the technique in general: SPR reads the build-up and loss of mass on a sensor chip optically.

The target in assay [2] is T2, human FcγRIIIa V allotype extracellular domain with C-terminal His-tag (human, UniProt P08637 17-208).
T2 construct: extracellular domain; also called hFcγR IIIa V
T2 sequence (P08637 17-208 F176V): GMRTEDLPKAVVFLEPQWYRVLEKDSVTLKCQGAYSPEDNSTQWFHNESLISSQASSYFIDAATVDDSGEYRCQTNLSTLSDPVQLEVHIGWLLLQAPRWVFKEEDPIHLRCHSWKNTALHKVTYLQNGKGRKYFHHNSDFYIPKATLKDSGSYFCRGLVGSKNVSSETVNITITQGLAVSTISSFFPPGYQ
The description is as above.

The target in assay [3] is T3, human FcγRIIa H allotype extracellular domain with C-terminal His-tag (human, UniProt P12318 34-217).
T3 construct: extracellular domain; also called hFcγR IIa H
T3 sequence (looked up): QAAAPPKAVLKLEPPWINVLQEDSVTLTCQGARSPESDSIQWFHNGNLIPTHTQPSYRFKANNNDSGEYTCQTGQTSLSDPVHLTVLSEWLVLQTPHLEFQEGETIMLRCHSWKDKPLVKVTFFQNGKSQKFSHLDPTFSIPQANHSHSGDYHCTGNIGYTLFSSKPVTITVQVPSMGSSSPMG
The description is as above.

Assay [4] addresses T4, human FcγRIa extracellular domain with C-terminal His-tag (human, UniProt P12314 16-292).
T4 construct: extracellular domain; also called hFcγR Ia; hFcγRIa
The description is as above.

The target of assay [5] is T5, human FcRn (human, UniProt P55899 24-290; P61769 21-119).
T5 construct: Prepared by the method of WO 2010/107110; also called hFcRn
T5 sequence (P55899 24-290 limits assumed, chain 1 of 2): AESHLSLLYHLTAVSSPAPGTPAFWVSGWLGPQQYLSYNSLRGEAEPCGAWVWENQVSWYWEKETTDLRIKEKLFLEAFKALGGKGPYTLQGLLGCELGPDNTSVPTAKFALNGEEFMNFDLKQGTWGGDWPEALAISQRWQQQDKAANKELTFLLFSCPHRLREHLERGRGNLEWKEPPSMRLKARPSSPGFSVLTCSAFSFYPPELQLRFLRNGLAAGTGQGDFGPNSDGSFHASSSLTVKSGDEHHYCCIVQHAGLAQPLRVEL
T5 sequence (P61769 21-119 limits assumed, chain 2 of 2): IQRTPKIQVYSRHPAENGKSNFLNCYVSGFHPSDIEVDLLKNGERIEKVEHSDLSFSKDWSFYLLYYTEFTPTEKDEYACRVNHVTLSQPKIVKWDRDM
The description is as above.

In assay [6] the target is T5, human FcRn. The assay can be described thus: SPR Biacore T200, Ab captured via Fab-kappa, pH 6.0, steady state.
Assay [7] deals with T6, human FcγRIIb extracellular domain with C-terminal His-tag (human, UniProt P31994 43-217).
T6 construct: extracellular domain; also called hFcγR IIb
T6 sequence (looked up): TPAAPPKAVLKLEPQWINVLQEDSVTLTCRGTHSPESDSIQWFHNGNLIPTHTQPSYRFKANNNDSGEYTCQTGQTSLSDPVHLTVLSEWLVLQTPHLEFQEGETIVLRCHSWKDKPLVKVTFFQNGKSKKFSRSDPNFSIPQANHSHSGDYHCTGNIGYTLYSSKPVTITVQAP
Put plainly: SPR; FcγRIIb bound amount per unit captured Ab.

For assay [8], the target named is T1, human FcγRIIa R allotype extracellular …. The assay can be described thus: SPR Biacore T200, Ab captured via Fab-kappa, pH 7.4, 25C.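 Also: each FcγR flowed as analyte over the captured antibodies, KD derived by 1:1 Langmuir or steady-state affinity fitting depending on the receptor.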
Procedure: (§1) The interaction between the generated antibodies and human FcγRs was analyzed using Biacore T200. 50 mM Na-Phosphate, 150 mM NaCl, 0.05% Tween20 (pH 7.4) was used as the running buffer, and the assay was performed at 25° C. For the sensor chip, Series S SA (GE Healthcare) chips onto which CaptureSelect Human Fab-kappa Kinetics Biotin Conjugate (Thermo Fisher Scientific) was immobilized were used. The antibodies of interest were captured onto these chips and each FcγR diluted in the running buffer was allowed to interact with them. Chips were regenerated with 10 mM Glycine-HCl (pH 1.5) and 25 mM NaOH, and assay was performed by repeatedly capturing antibodies. The dissociation constants KD (mol/L) for FcγRs of each antibody were calculated using Biacore T200 Evaluation Software 2.0, and using the 1:1 Langmuir binding model for FcγRIa and FcγRIIIa and the steady state affinity model for FcγRIIa. For FcγRIIb, the binding amount of FcγRIIb per unit amount of antibody was calculated by correcting the binding amount of FcγRIIb obtained from the sensorgram obtained by the measurement with the amount of antibody captured onto the chip surface.
The target in assay [9] is T3, human FcγRIIa H allotype extracellular …. The assay is described as above.
Procedure: as §1
The target of assay [10] is T4, human FcγRIa extracellular domain with …. The description is as above.
Procedure: as §1
Assay [11] has as its target T6, human FcγRIIb extracellular domain with …. The assay can be described thus: SPR; binding amount divided by that of 04H1389-G1m/04L1615-k0MT.
Assay [12] has as its target T2, human FcγRIIIa V allotype extracellular …. Put plainly: SPR Biacore T200, Ab captured via Fab-kappa, pH 7.4, 25C, steady state model.
Procedure: as §1
Assay [13] has as its target T7, human CTLA4 (human).
T7 construct: also called hCTLA4; hCTLA4-His-BAP
The assay can be described thus: SPR Biacore T200, 37C, antibody captured, ATP 1 uM.
Procedure: (§2) Biacore T200 was used to measure the binding of the generated antibodies to human CTLA4. 20 mM ACES (pH 7.4), 150 mM NaCl, 2 mM MgCl₂, 0.05% Tween 20 with ATP added to the desired concentration was used as the running buffer, and the assay was performed at 37° C. First, Protein G (CALBIOCHEM) was immobilized onto a Series S Sensor Chip CM3 (GE Healthcare), and the antibodies were captured by interacting an antibody solution prepared in an ATP-free running buffer with the chip. Next, by interacting with a human CTLA4 solution prepared in a running buffer containing ATP to the desired concentration, or a human CTLA4 solution prepared in a running buffer containing no ATP, the binding ability of the antibody to human CTLA4 in the presence or absence of ATP was evaluated. Chips were regenerated with 25 mM NaOH and 10 mM Glycine-HCl (pH 1.5), and assay was performed by repeatedly capturing antibodies. The dissociation constant of each antibody for CTLA4 was calculated using Biacore T200 Evaluation Software 2.0. Specifically, the binding rate constant ka (L/mol/s) and the dissociation rate constant kd (1/s) were calculated by global fitting of the sensorgrams obtained by the measurement, using a 1:1 Langmuir binding model. The dissociation constant KD (mol/L) was calculated from those values. Alternatively, the dissociation constant KD (mol/L) was calculated by the steady state model. In addition, the binding amount of CTLA4 per unit amount of antibody was calculated by correcting the amount of CTLA4 bound as calculated from the sensorgram obtained by the assay with the amount of antibody captured onto the chip surface.

Assay [14] has as its target T7, human CTLA4. The assay can be described thus: SPR Biacore T200, 37C, antibody captured, AMP 10 uM.
Procedure: as §2
(§3) The binding ability of the generated variants to human CTLA4 in the presence of ADP or AMP was evaluated by Biacore T200 and compared with the binding ability in the presence of ATP.
Assay [15] deals with T7, human CTLA4. Put plainly: SPR Biacore T200, 37C, antibody captured, ADP 10 uM.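 Also: antibodies held on a Protein G CM3 chip, human CTLA4 as analyte in ACES pH 7.4 buffer, rates from a global 1:1 Langmuir fit, Kd from rates or steady state.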
Assay [16] concerns the target T7, human CTLA4. The assay can be described thus: SPR Biacore T200, 37C, antibody captured, ATP 10 uM.
Procedure: as §2
Assay [17] deals with T7, human CTLA4. The description is as above. The source holds these as a separate data set.
Procedure: as §2
(§4) Next, the binding ability of some variants to mouse CTLA4 and cynomolgus monkey CTLA4 was evaluated.
Assay [18] concerns the target T8, cynomolgus monkey CTLA4 (CyCTLA4-His-BAP) (cynomolgus monkey). The assay is described as above.
Procedure: as §2, §4
Assay [19] concerns the target T9, mouse CTLA4 extracellular region linked with a His-tag (mCTLA4-His) (mouse, UniProt P09793 36-161). The assay is described as above.
Procedure: as §2, §4
In assay [20] the target is T7, human CTLA4. The description is as above. The source holds these as a separate data set.
Procedure: as §2, §3
Assay [21] deals with T7, human CTLA4. Put plainly: SPR Biacore T200, 37C, antibody captured, ATP 100 uM.
Assay [22] deals with T8, cynomolgus monkey CTLA4 …. Described as above.
Assay [23] concerns the target T9, mouse CTLA4 extracellular region linked …. Described as above.
For assay [24], the target named is T7, human CTLA4. The assay can be described thus: SPR Biacore T200, 37C, antibody captured, no ATP; no ATP.
Procedure: Biacore T200 was used to measure the binding of the generated antibodies to human CTLA4. 20 mM ACES (pH 7.4), 150 mM NaCl, 2 mM MgCl₂, 0.05% Tween 20 with ATP added to the desired concentration was used as the running buffer, and the assay was performed at 37° C. First, Protein G (CALBIOCHEM) was immobilized onto a Series S Sensor Chip CM3 (GE Healthcare), and the antibodies were captured by interacting an antibody solution prepared in an ATP-free running buffer with the chip. Next, by interacting with a human CTLA4 solution prepared in a running buffer containing ATP to the desired concentration, or a human CTLA4 solution prepared in a running buffer containing no ATP, the binding ability of the antibody to human CTLA4 in the presence or absence of ATP was evaluated. Chips were regenerated with 25 mM NaOH and 10 mM Glycine-HCl (pH 1.5), and assay was performed by repeatedly capturing antibodies. The dissociation constant of each antibody for CTLA4 was calculated using Biacore T200 Evaluation Software 2.0. Specifically, the binding rate constant ka (L/mol/s) and the dissociation rate constant kd (1/s) were calculated by global fitting of the sensorgrams obtained by the measurement, using a 1:1 Langmuir binding model. The dissociation constant KD (mol/L) was calculated from those values. Alternatively, the dissociation constant KD (mol/L) was calculated by the steady state model. […]
Assay [25] deals with T7, human CTLA4. Put plainly: SPR Biacore T200, 37C, antibody captured, ATP 1 uM. The source holds these as a separate data set.
Procedure: as §2, §4
The target of assay [26] is T8, cynomolgus monkey CTLA4 …. The assay can be described thus: SPR Biacore T200, 37C, antibody captured, ATP 1 uM.
Procedure: as §2, §4
Assay [27] has as its target T9, mouse CTLA4 extracellular region linked …. The assay can be described thus: SPR Biacore T200, 37C, antibody captured, ATP 1 uM.
Procedure: as §2, §4
For assay [28], the target named is T1, human FcγRIIa R allotype extracellular …. The assay can be described thus: SPR Biacore T200, captured Ab, pH 7.4.
Procedure: (§5) The interaction between the generated antibodies and human FcγRs was analyzed by the following method using Biacore T200. 50 mM Na-Phosphate, 150 mM NaCl, 0.05% Tween20 (pH 7.4) was used as the running buffer, and the assay was performed at 25° C. For the sensor chips, Series S SA (GE Healthcare) chips onto which CaptureSelect Human Fab-lambda Kinetics Biotin Conjugate (Thermo Fisher Scientific) was immobilized were used. The antibodies of interest were captured onto these chips and each FcγR diluted in the running buffer was allowed to interact with them. Chips were regenerated with 10 mM Glycine-HCl (pH 1.5) and 25 mM NaOH, and assay was performed by repeatedly capturing antibodies. The dissociation constants KD (mol/L) for FcγRs of each antibody were calculated using Biacore T200 Evaluation Software 2.0, using the 1:1 Langmuir binding model for FcγRIa and FcγRIIIa and the steady state affinity model for FcγRIIa. For FcγRIIb, the binding amount of FcγRIIb per unit amount of antibody was calculated by correcting the binding amount of FcγRIIb obtained from the sensorgram obtained by the measurement with the amount of antibody captured onto the chip surface.
Assay [29] concerns the target T10, human FcγRIIIa F allotype extracellular domain with C-terminal His-tag (human, UniProt P08637 17-208).
T10 construct: extracellular domain; also called hFcγR IIIa F
The assay can be described thus: SPR Biacore T200, captured Ab, pH 7.4.
Procedure: as §5

For assay [30], the target named is T3, human FcγRIIa H allotype extracellular …. The assay can be described thus: SPR Biacore T200, captured Ab, pH 7.4.
Procedure: as §5
Assay [31] addresses T4, human FcγRIa extracellular domain with …. The assay can be described thus: SPR Biacore T200, captured Ab, pH 7.4.
Procedure: as §5
For assay [32], the target named is T1, human FcγRIIa R allotype extracellular …. The assay can be described thus: SPR; KD of 04H1656-G1m/04L1610-lam1 divided by KD of variant.
Assay [33] deals with T10, human FcγRIIIa F allotype extracellular …. Described as above.
Assay [34] has as its target T2, human FcγRIIIa V allotype extracellular …. The description is as above.
For assay [35], the target named is T3, human FcγRIIa H allotype extracellular …. The description is as above.
The target in assay [36] is T4, human FcγRIa extracellular domain with …. The assay is described as above.
Assay [37] deals with T5, human FcRn. The assay is described as above.
In assay [38] the target is T6, human FcγRIIb extracellular domain with …. The assay can be described thus: SPR; FcγRIIb bound amount per unit captured Ab. This is another data set of the same source.
Procedure: as §5
The target of assay [39] is T2, human FcγRIIIa V allotype extracellular …. Put plainly: SPR Biacore T200, captured Ab, pH 7.4, steady state model.
Procedure: as §5
The target in assay [40] is T6, human FcγRIIb extracellular domain with …. Put plainly: SPR; binding amount divided by that of 04H1656-G1m/04L1610-lam1.
The target of assay [41] is T5, human FcRn. The assay can be described thus: SPR Biacore T200, captured Ab, pH 6.0, steady state.
Procedure: The interaction between the generated antibodies and human FcRn was analyzed by the following method using Biacore T200. 50 mM Na-Phosphate, 150 mM NaCl, 0.05% Tween20 (pH 6.0) was used as the running buffer, and the assay was performed at 25° C. For the sensor chip, Series S SA (GE Healthcare) chips onto which CaptureSelect Human Fab-lambda Kinetics Biotin Conjugate (Thermo Fisher Scientific) was immobilized were used. The antibodies of interest were captured onto these chips and FcRn diluted in the running buffer was allowed to interact with them. Chips were regenerated with 10 mM Glycine-HCl (pH 1.5) and 25 mM NaOH, and assay was performed by repeatedly capturing antibodies. The dissociation constant for FcRn of each antibody was calculated using the steady state model, using Biacore T200 Evaluation Software 2.0.

Where two headings read alike, the source gives them in different places.

T4 sequence (P12314 16-292): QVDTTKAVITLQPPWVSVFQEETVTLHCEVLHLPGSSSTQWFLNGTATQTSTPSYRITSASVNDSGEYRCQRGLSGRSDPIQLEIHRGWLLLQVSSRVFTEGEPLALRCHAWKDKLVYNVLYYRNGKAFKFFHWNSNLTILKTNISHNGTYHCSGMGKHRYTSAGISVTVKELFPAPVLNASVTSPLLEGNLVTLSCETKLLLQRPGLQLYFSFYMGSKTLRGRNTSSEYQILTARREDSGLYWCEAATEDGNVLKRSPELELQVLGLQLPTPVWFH
T7 sequence (chain, as listed by the source limits assumed): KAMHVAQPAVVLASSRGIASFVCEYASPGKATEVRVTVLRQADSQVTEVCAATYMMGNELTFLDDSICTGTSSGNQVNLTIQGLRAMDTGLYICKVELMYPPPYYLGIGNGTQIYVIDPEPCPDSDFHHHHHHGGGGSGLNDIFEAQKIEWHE
T8 sequence (chain, as listed by the source limits assumed): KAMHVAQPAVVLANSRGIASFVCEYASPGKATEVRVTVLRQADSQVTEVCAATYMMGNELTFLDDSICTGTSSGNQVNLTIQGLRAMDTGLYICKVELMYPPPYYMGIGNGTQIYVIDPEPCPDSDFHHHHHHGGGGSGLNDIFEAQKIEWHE
T10 sequence (P08637 17-208): as the sequence (P08637 17-208 F176V) above, with V160F counted along it

B1: 04H1389-G1m/04L1615-k0MT (antibody, human IgG1, kappa)
heavy: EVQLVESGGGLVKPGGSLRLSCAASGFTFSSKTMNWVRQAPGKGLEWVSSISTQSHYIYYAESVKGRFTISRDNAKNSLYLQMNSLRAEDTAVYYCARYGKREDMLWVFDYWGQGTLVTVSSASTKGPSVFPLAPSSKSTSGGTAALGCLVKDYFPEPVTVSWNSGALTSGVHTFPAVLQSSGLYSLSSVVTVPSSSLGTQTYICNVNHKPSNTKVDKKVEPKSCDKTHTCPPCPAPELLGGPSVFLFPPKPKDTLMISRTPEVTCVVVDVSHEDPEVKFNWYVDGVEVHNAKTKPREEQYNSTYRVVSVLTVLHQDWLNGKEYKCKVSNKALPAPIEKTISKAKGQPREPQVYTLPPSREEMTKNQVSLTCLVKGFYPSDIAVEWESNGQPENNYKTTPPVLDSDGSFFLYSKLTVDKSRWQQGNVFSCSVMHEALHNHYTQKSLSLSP
light: DIVMTQSPLSLPVTPGEPASISCQGPSTGVGDYNYVHWYQQKPGQAPRLLIYFTSKKPSGVPDRFSGSGSGTDFTLKISRVEAEDVGVYYCQTYAAPLGPMFGQGTKLEIKRTVAAPSVFIFPPSDEQLKSGTASVVCLLNNFYPREAKVQWKVDNALQSGNSQESVTEQDSKDSTYSLSSTLTLSKADYEKHKVYACEVTHQGLSSPVTKSFNRGEC
notes: Homodimer used for comparison; also called 04H1389-G1m/04L16150k0MT
What is called Kd is the concentration at which binding is half-saturated. For B1, the “Relative value to KD between G1m and hFcγRs” value in assay [1], in [2], in assay [3] and in [4] was 1 throughout. Besides, the “Relative value to KD between G1m and hFcRn” value with human FcRn [5] came to 1. The Kd was 1300 nM with human FcRn [6]; 1500 nM in assay [8]; 1100 nM in assay [9]; 0.045 nM in assay [10]; 910 nM in assay [12]. Further, the Binding amount in assay [7] came out at 0.011. Further, the Relative binding amount in assay [11] is 1.

B2: 04H1654-G1m/04L1610-lam1 (antibody, human IgG1, lambda)
heavy: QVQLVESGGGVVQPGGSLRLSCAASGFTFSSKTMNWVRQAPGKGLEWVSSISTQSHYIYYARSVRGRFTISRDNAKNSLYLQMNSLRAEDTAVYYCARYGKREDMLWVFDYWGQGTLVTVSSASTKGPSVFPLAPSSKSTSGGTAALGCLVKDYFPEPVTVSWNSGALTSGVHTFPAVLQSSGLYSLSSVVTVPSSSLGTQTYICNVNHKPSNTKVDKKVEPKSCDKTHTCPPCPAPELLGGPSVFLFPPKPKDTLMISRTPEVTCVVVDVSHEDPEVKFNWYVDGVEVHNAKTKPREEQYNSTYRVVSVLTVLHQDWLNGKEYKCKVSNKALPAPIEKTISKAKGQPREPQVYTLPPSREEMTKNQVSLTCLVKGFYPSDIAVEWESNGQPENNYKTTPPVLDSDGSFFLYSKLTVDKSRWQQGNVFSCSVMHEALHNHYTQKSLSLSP
light: QSALTQPPSASGSPGQSVTISCEGPSTGVGDYNWVHWYQQHPGKAPKLMIYFTSKKPSGVPDRFSGSKSGNTASLTVSGLQAEDEADYYCQTYAAPLGPMFGGGTKLTVLGQPKAAPSVTLFPPSSEELQANKATLVCLISDFYPGAVTVAWKADSSPVKAGVETTTPSKQSNNKYAASSYLSLTPEQWKSHRSYSCQVTHEGSTVEKTVAPTECS
Usually koff stands for the first-order rate constant of dissociation. What is called kon is the second-order rate constant of association. For the molecule B2, the Kd was found to be 120 nM with human CTLA4 [13]; 100 nM with human CTLA4 [14]; 32 nM with human CTLA4 [15]; 19 nM in the assay with human CTLA4 [16]; 15 nM with human CTLA4 [17]; 28 nM in [18]. The Kd in assay [19] is 27 nM; in the assay with human CTLA4 [20], 19 nM; with human CTLA4 [21], 4.4 nM; in assay [22] it was 8.1 nM; in [23], 10 nM; with human CTLA4 [24] it was 5300 nM. The Kd with human CTLA4 [25] worked out at 110 nM; in [26], 180 nM; in [27] it was 180 nM. Besides, the koff with human CTLA4 [14] worked out at 0.0089 s⁻¹; in the assay with human CTLA4 [15], 0.0028 s⁻¹; with human CTLA4 [20] it was 0.0014 s⁻¹. For the same molecule, the on-rate constant (kon) in the assay with human CTLA4 [14] worked out at 89000 M⁻¹ s⁻¹; with human CTLA4 [15] it was 88000 M⁻¹ s⁻¹; with human CTLA4 [20], 71000 M⁻¹ s⁻¹.

B3: 04H1656-G1m/04L1610-lam1 (antibody, human IgG1, lambda)
heavy: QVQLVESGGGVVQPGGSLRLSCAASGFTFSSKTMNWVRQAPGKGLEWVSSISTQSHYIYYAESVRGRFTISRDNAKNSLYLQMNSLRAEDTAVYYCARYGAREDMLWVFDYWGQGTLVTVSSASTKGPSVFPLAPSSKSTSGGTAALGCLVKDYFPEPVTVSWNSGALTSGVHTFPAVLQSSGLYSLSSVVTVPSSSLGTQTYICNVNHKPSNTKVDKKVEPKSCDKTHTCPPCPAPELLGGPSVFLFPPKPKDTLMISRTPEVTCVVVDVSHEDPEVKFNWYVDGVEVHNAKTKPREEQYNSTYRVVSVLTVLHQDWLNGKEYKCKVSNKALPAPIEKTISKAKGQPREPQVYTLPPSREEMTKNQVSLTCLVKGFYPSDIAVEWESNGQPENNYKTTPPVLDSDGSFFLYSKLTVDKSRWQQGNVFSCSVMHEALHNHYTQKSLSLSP
light: QSALTQPPSASGSPGQSVTISCEGPSTGVGDYNWVHWYQQHPGKAPKLMIYFTSKKPSGVPDRFSGSKSGNTASLTVSGLQAEDEADYYCQTYAAPLGPMFGGGTKLTVLGQPKAAPSVTLFPPSSEELQANKATLVCLISDFYPGAVTVAWKADSSPVKAGVETTTPSKQSNNKYAASSYLSLTPEQWKSHRSYSCQVTHEGSTVEKTVAPTECS
Regarding B3, the dissociation constant (Kd) in assay [28] is 1600 nM; in assay [29], 1000 nM; in assay [30] it was 1300 nM; in [31], 0.092 nM; in assay [39] it was 970 nM; with human FcRn [41], 1700 nM. For the same molecule, the “Relative value to KD between G1m and hFcγRs” value in assay [32], in [33], in [34], in [35] and in assay [36] was 1 throughout. Further, in the assay with human FcRn [37], the “Relative value to KD between G1m and hFcRn” value was determined as 1. The Binding amount in [38] amounted to 0.008. For the same molecule, the Relative binding amount in assay [40] stood at 1.
